# B1: GST-EB1 (other, mouse, UniProt Q61166 1-268, looked up)
# chain: MAVNVYSTSVTSDNLSRHDMLAWINESLQLNLTKIEQLCSGAAYCQFMDMLFPGSIALKKVKFQAKLEHEYIQNFKILQAGFKRMGVDKIIPVDKLVKGKFQDNFEFVQWFKKFFDANYDGKEYDPVAARQGQETAVAPSLVAPALSKPKKPLGSSTAAPQRPIATQRTTAAPKAGPGMVRKNPGVGNGDDEAAELMQQVKVLKLTVEDLEKERDFYFGKLRNIELICQENEGENDPVLQRIVDILYATDEGFVIPDEGGPQEEQEEY
# notes: not shown: glutathione S-transferase (GST) tag, N-terminal, vector pGEX-2T
# B2: GST-APC-C1 (amino acids 2674-2843) (other, UniProt P25054 2674-2843, looked up)
# chain: SPTGNTPPVIDSVSEKANPNIKDSKDNQAKQNVGNGSVPMRTVGLENRLNSFIQVDAPDQKGTEIKPGQNNPVPVSETNESSIVERTPFSSSSSSKHSSPSGTVAARVTPFNYNPSPRKSSADSTSARPSQIPTPVNNNTKKRDSKTDSTESSGTQSPKRHSGSYLVTSV
# notes: range 2674-2843; Gift from R. Baer; not shown: glutathione S-transferase (GST) tag
# Tests used:
# [1] = biological target: T1, His-521-1040-mDia2 (purified recombinant protein) (UniProt Q9Z207 521-1040); assay: direct binding of purified recombinant proteins, GST pull-down, anti-His western blot
# T1 construct: also called His-mDia; not shown: His tag of vector pQE-30 (detected with RGS-His antibody)
# Excerpt: (§1) Bound proteins were detected by western blotting with antibodies to Flag-mDia1, tubulin and actin. […] Bound His-mDia was detected by western blotting with an anti-His antibody. (e) Endogenous mDia1 and EB1 co-immunoprecipitate with APC. Mouse brain extracts and COS-7 cell lysates were immunoprecipitated with APC antibodies and precipitates analyzed for APC, mDia1 and EB1 by western blotting with the indicated antibodies. IgG, non-immune immunoglobulin G used for control immunoprecipitation. (f) Schematic representation of the interactions between mDia, EB1 and APC. EB1 and APC bind to mDia through different domains than they use to bind to each other. Note that although EB1 and APC bind to the FH1-FH2 region of mDia, the individual binding sites within this domain have not been mapped. The molecules are not drawn to scale.
# mDia2 transcripts labeled with ³⁵S-methionine (Amersham Biosciences) were generated with Quick-Coupled Transcription/Translation Systems (Promega). […] After washing, bound proteins were eluted with SDS sample buffer and analyzed by SDS-PAGE. […] The treated lysates were incubated with GST-tagged constructs as described above and analyzed by western blotting with mouse anti-Flag-M2 antibody (1:10,000; Sigma), rabbit anti-tubulin10 (W2; 1:50,000) and mouse anti-actin (C4D6; 1:50,000). […] Bound proteins were analyzed by western blotting with mouse RGS-His antibody (1:10,000).
# [2] = biological target: B2; assay: GST pull-down from COS-7 lysates, anti-GFP western blot
# Excerpt: Residues of EB1 that were mutated to the indicated residues (below) are shaded in grey. (b) Diagram of GST-APC constructs used in this study. APC has a microtubule-binding site (labeled ‘Basic’) and a separate EB1-binding site in its C-terminus. (c) Pull-down analysis of wild type (WT) EB1-C-GFP and mutant EB1-C-GFPs by GST-APC-C1 and GST-p150^Glued (1-330). Western blots were probed with anti-GFP antibody. (d) The ability of EB1-C-GFP wild type (WT) and mutants to inhibit LPA-stimulated Glu-MTs in serum-starved 3T3 cells. All EB1-C-GFP constructs were expressed at equivalent levels on the basis of GFP fluorescence. Error bars represent the standard error from at least three independent experiments. (e) EB1-GFP and EB1-C-GFP interact with endogenous APC in cells. COS-7 cells were transiently transfected and immunoprecipitated as indicated. Western blots of the immunoprecipitates were probed with EB1 antibody. […] Cells expressing APC (untagged) were detected with antibody to APC. […]
# For binding of wild-type and mutant EB1-C-GFP to APC or p150^Glued, COS-7 cells were transfected with EB1-C-GFP constructs and lysed in PBS containing 1% Triton X-100 and protease inhibitors. […] Bound proteins were analyzed by western blotting with rabbit anti-GFP (1:10,000; BD Transduction Laboratory). […] Bound proteins were eluted with SDS sample buffer and analyzed by western blotting for EB1.
# [3] = biological target: B1; assay: GST pull-down of 35S-labelled in vitro translated protein, autoradiography
# Excerpt: as §1, with “EB1 and APC interact with mDia. (a) Binding of in vitro transcribed and translated ³⁵S-labelled ΔGBD-mDia2 to the indicated GST-tagged constructs of EB1 and APC (bottom). Arrows indicate full-length GST-APC-C or GST-APC-basic proteins. Additional bands detected in the GST-APC-C and GST-APC-basic lanes are presumed to be breakdown products. (b) Binding of in vitro transcribed and translated ³⁵S-labelled mDia2 fragments to GST-EB1, GST and GST-APC-C. (c) Binding of Flag-mDia1 expressed in COS-7 cells to GST-EB1 and GST-APC-C in the presence of DMSO, nocodazole (NZ) and latrunculin A (Lat A). Bound proteins” for “Bound proteins”
# (§2) mDia2 transcripts labeled with ³⁵S-methionine (Amersham Biosciences) were generated with Quick-Coupled Transcription/Translation Systems (Promega). Equal molar amounts of GST, GST-EB1 or GST-APC on beads were incubated with labeled transcripts for 2 h at 4° C. in PBS containing 1% Triton X-100 and protease inhibitors. After washing, bound proteins were eluted with SDS sample buffer and analyzed by SDS-PAGE. Gels were incubated for 15-30 min in Amplify (Amersham Biosciences), dried and autoradiographed for 1-24 h. Flag-mDia1 (40) was transfected into COS-7 cells, lysates prepared and treated with 0.5 μM latrunculin A, 10 μM nocodazole or DMSO for 1 h on ice.
# [4] = biological target: T2, GST-APC-C (amino acids 2167-2843) (UniProt P25054 2167-2843); assay: as above
# T2 construct: range 2167-2843; Gift from R. Baer; not shown: glutathione S-transferase (GST) tag
# Excerpt: as §1, with “EB1 and APC interact with mDia. (a) Binding of in vitro transcribed and translated ³⁵S-labelled ΔGBD-mDia2 to the indicated GST-tagged constructs of EB1 and APC (bottom). Arrows indicate full-length GST-APC-C or GST-APC-basic proteins. Additional bands detected in the GST-APC-C and GST-APC-basic lanes are presumed to be breakdown products. (b) Binding of in vitro transcribed and translated ³⁵S-labelled mDia2 fragments to GST-EB1, GST and GST-APC-C. (c) Binding of Flag-mDia1 expressed in COS-7 cells to GST-EB1 and GST-APC-C in the presence of DMSO, nocodazole (NZ) and latrunculin A (Lat A). Bound proteins” for “Bound proteins”
# as §2
# [5] = biological target: T3, mDia2 FH2 domain fragment, in vitro transcribed and translated, 35S-labelled (UniProt Q9Z207 615-1013, limits assumed, 35S-methionine label); assay: as above
# T3 construct: domain: FH2
# Excerpt: as §1, with “EB1 and APC interact with mDia. (a) Binding of in vitro transcribed and translated ³⁵S-labelled ΔGBD-mDia2 to the indicated GST-tagged constructs of EB1 and APC (bottom). Arrows indicate full-length GST-APC-C or GST-APC-basic proteins. Additional bands detected in the GST-APC-C and GST-APC-basic lanes are presumed to be breakdown products. (b) Binding of in vitro transcribed and translated ³⁵S-labelled mDia2 fragments to GST-EB1, GST and GST-APC-C. (c) Binding of Flag-mDia1 expressed in COS-7 cells to GST-EB1 and GST-APC-C in the presence of DMSO, nocodazole (NZ) and latrunculin A (Lat A). Bound proteins” for “Bound proteins”
# as §2
# [6] = biological target: T4, ΔGBDΔDADG(YEKR)-mDia2 (UniProt Q9Z207 258-1030, limits assumed, 35S-methionine label (in the binding assay)); assay: as above
# T4 construct: a GFP-myc-tagged form was expressed in 3T3 cells for the Glu-MT assay; also called G(YEKR) mutation
# Excerpt: as §1, with “EB1 and APC interact with mDia. (a) Binding of in vitro transcribed and translated ³⁵S-labelled ΔGBD-mDia2 to the indicated GST-tagged constructs of EB1 and APC (bottom). Arrows indicate full-length GST-APC-C or GST-APC-basic proteins. Additional bands detected in the GST-APC-C and GST-APC-basic lanes are presumed to be breakdown products. (b) Binding of in vitro transcribed and translated ³⁵S-labelled mDia2 fragments to GST-EB1, GST and GST-APC-C. (c) Binding of Flag-mDia1 expressed in COS-7 cells to GST-EB1 and GST-APC-C in the presence of DMSO, nocodazole (NZ) and latrunculin A (Lat A). Bound proteins” for “Bound proteins”
# as §2
# T1 sequence (Q9Z207 521-1040): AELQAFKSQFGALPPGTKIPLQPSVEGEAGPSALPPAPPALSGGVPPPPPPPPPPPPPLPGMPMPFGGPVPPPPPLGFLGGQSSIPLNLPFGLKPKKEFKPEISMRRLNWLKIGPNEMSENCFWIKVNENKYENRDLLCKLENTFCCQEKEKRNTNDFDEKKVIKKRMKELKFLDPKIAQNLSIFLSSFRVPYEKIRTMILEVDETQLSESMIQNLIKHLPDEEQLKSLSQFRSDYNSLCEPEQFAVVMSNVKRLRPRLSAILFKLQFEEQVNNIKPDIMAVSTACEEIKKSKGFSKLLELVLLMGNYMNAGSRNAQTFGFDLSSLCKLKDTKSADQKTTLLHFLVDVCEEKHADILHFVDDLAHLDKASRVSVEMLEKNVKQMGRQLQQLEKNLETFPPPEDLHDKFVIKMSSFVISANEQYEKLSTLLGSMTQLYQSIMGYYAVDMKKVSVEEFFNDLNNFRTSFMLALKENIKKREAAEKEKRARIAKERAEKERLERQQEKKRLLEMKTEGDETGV
# T3 sequence (Q9Z207 615-1013 limits assumed): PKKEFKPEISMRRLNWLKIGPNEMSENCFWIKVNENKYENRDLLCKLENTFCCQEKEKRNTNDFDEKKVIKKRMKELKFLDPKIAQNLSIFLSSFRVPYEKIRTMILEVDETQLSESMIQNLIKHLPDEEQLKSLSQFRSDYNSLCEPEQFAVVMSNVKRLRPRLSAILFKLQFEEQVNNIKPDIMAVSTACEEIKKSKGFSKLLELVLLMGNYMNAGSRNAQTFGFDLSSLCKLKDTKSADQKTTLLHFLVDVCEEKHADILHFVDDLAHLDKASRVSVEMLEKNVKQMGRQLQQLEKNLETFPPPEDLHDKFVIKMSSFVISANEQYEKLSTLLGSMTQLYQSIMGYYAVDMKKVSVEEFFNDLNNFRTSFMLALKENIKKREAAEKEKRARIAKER
# T4 sequence (Q9Z207 other isoform, or with tags, fused parts or gaps mutant limits assumed): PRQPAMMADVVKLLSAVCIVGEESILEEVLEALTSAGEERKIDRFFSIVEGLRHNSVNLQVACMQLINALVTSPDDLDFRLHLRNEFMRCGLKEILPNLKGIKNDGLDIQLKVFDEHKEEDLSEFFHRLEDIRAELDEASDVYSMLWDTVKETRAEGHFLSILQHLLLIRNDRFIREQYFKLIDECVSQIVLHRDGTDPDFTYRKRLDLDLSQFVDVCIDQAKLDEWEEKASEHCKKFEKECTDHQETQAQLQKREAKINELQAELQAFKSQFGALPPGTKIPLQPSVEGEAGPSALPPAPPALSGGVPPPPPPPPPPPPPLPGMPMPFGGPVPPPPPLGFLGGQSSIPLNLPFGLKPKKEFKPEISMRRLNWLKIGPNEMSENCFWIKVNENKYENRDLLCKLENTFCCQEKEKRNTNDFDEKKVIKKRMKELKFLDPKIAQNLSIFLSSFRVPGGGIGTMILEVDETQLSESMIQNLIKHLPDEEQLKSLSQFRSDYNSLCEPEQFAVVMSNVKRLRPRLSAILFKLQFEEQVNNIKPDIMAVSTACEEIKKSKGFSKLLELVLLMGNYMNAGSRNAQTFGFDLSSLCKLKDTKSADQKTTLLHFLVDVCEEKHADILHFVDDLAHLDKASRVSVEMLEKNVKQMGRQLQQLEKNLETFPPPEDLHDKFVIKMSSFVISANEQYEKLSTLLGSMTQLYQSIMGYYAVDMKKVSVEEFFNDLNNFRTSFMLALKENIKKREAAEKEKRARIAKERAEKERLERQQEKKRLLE
binding result [1],binding result [2],Binder,further results
no binding (tested: 0.3 µM),–,"GST-EB1-C (other, mouse, UniProt Q61166 165-268, looked up, range 165-268; also called glutathione S-transferase fused to EB1-C; not shown: glutathione S-transferase (GST) tag, N-terminal, vector pGEX-2T) ATQRTTAAPKAGPGMVRKNPGVGNGDDEAAELMQQVKVLKLTVEDLEKERDFYFGKLRNIELICQENEGENDPVLQRIVDILYATDEGFVIPDEGGPQEEQEEY",–
–,no binding,"EB1-C-KR-GFP (other, mouse, UniProt Q61166 165-268, looked up, range 165-268; not shown: GFP tag (vector pGFP-NKB)) ATQRTTAAPKAGPGMVRKNPGVGNGDDEAAELMQQVKVLKLTVEDLEKERDFYFGALANIELICQENEGENDPVLQRIVDILYATDEGFVIPDEGGPQEEQEEY",–
–,no binding,"EB1-C-EEKR-GFP (other, mouse, UniProt Q61166 165-268, looked up, range 165-268; not shown: GFP tag (vector pGFP-NKB)) ATQRTTAAPKAGPGMVRKNPGVGNGDDEAAELMQQVKVLKLTVEDLAKARDFYFGALANIELICQENEGENDPVLQRIVDILYATDEGFVIPDEGGPQEEQEEY",–
–,–,"mDia2 FH1 domain fragment, in vitro transcribed and translated, 35S-labelled (other, UniProt Q9Z207 540-610, looked up, 35S-methionine label, domain: FH1) PLQPSVEGEAGPSALPPAPPALSGGVPPPPPPPPPPPPPLPGMPMPFGGPVPPPPPLGFLGGQSSIPLNLP",binding result [3]: no binding; binding result [4]: no binding
–,–,B1,binding result [5]: no binding; binding result [6]: no binding
no binding (tested: 0.3 µM),–,B2,–

# Source: patent US20070148663A1 (TRUSTEES OF COLUMBIA UNIVERSITY IN THE CITY OF NEW YORK, published 2007)
